Changes are numbered by the printed parent chain. Numbers in names are those of the source. Read-outs that look alike come from different tables or passages of the source.
Key:
Cdc12 = biological target: T1, Cdc12 (S. cerevisiae, UniProt P32468 1-407); assay: negative-stain electron microscopy
T1 sequence (looked up): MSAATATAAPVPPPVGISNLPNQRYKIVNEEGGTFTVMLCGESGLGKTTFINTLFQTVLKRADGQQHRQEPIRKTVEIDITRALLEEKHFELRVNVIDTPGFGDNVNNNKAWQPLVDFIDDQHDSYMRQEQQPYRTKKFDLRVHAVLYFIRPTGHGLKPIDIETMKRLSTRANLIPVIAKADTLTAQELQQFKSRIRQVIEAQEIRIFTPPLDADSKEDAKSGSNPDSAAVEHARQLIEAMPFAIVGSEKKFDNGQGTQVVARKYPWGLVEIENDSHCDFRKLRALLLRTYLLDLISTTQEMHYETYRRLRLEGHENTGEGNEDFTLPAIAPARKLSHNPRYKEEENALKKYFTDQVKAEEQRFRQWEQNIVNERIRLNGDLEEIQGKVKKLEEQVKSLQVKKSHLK

[1] = biological target: the molecule itself; assay: electron microscopy of lipid monolayers
[2] = biological target: the molecule itself; assay: negative-stain electron microscopy
[3] = biological target: the molecule itself; assay: electron microscopy of lipid monolayers; remark: listed apart in the source
[4] = biological target: the molecule itself; assay: electron microscopy of lipid monolayers; remark: listed apart in the source

B1: Cdc11(Δ2–18) (natural protein, S. cerevisiae, UniProt P32458 1-415, looked up)
chain: MRGITFTVMIVGQSGSGRSTFINTLCGQQVVDTSTTILLPTDTSTEIDLQLREETVELEDDEGVKIQLNIIDTPGFGDSLDNSPSFEIISDYIRHQYDEILLEESRVRRNPRFKDGRVHCCLYLINPTGHGLKEIDVEFIRQLGSLVNIIPVISKSDSLTRDELKLNKKLIMEDIDRWNLPIYNFPFDEDEISDEDYETNMYLRTLLPFAIIGSNEVYEMGGDVGTIRGRKYPWGILDVEDSSISDFVILRNALLISHLHDLKNYTHEILYERYRTEALSGESVAAESIRPNLTKLNGSSSSSTTTRRNTNPFKQSNNINNDVLNPASDMHGQSTGENNETYMTREEQIRLEEERLKAFEERVQQELLLKRQELLQREKELREIEARLEKEAKIKQEE
- percent of particles that are heptamers (Cdc12): 5.4%

B2: Cdc12–(His)6-Cdc3–Cdc10–Cdc11(Δ306–415) complex (complex, S. cerevisiae)
chain 1: T1 sequence (looked up)
chain 2: MSLKEEQVSIKQDPEQEERQHDQFNDVQIKQESQDHDGVDSQYTNGTQNDDSERFEAAESDVKVEPGLGMGITSSQSEKGQVLPDQPEIKFIRRQINGYVGFANLPKQWHRRSIKNGFSFNLLCVGPDGIGKTTLMKTLFNNDDIEANLVKDYEEELANDQEEEEGQGEGHENQSQEQRHKVKIKSYESVIEENGVKLNLNVIDTEGFGDFLNNDQKSWDPIIKEIDSRFDQYLDAENKINRHSINDKRIHACLYFIEPTGHYLKPLDLKFMQSVYEKCNLIPVIAKSDILTDEEILSFKKTIMNQLIQSNIELFKPPIYSNDDAENSHLSERLFSSLPYAVIGSNDIVENYSGNQVRGRSYPWGVIEVDNDNHSDFNLLKNLLIKQFMEELKERTSKILYENYRSSKLAKLGIKQDNSVFKEFDPISKQQEEKTLHEAKLAKLEIEMKTVFQQKVSEKEKKLQKSETELFARHKEMKEKLTKQLKALEDKKKQLELSINSASPNVNHSPVPTKKKGFLR
chain 3: MDPLSSVQPASYVGFDTITNQIEHRLLKKGFQFNIMVVGQSGLGKSTLINTLFASHLIDSATGDDISALPVTKTTEMKISTHTLVEDRVRLNINVIDTPGFGDFIDNSKAWEPIVKYIKEQHSQYLRKELTAQRERFITDTRVHAILYFLQPNGKELSRLDVEALKRLTEIANVIPVIGKSDTLTLDERTEFRELIQNEFEKYNFKIYPYDSEELTDEELELNRSVRSIIPFAVVGSENEIEINGETFRGRKTRWSAINVEDINQCDFVYLREFLIRTHLQDLIETTSYIHYEGFRARQLIALKENANSRSSAHMSSNAIQR
chain 4: MSGIIDASSALRKRKHLKRGITFTVMIVGQSGSGRSTFINTLCGQQVVDTSTTILLPTDTSTEIDLQLREETVELEDDEGVKIQLNIIDTPGFGDSLDNSPSFEIISDYIRHQYDEILLEESRVRRNPRFKDGRVHCCLYLINPTGHGLKEIDVEFIRQLGSLVNIIPVISKSDSLTRDELKLNKKLIMEDIDRWNLPIYNFPFDEDEISDEDYETNMYLRTLLPFAIIGSNEVYEMGGDVGTIRGRKYPWGILDVEDSSISDFVILRNALLISHLHDLKNYTHEILYERYRTEALSGESVAAES
- binding result [1]: binds

B3: Cdc3–Cdc11–(His)6–Cdc12-Cdc10(H24A R25A K28A K29A) complex (complex, S. cerevisiae)
chain 1: B2 chain 2
chain 2: MSGIIDASSALRKRKHLKRGITFTVMIVGQSGSGRSTFINTLCGQQVVDTSTTILLPTDTSTEIDLQLREETVELEDDEGVKIQLNIIDTPGFGDSLDNSPSFEIISDYIRHQYDEILLEESRVRRNPRFKDGRVHCCLYLINPTGHGLKEIDVEFIRQLGSLVNIIPVISKSDSLTRDELKLNKKLIMEDIDRWNLPIYNFPFDEDEISDEDYETNMYLRTLLPFAIIGSNEVYEMGGDVGTIRGRKYPWGILDVEDSSISDFVILRNALLISHLHDLKNYTHEILYERYRTEALSGESVAAESIRPNLTKLNGSSSSSTTTRRNTNPFKQSNNINNDVLNPASDMHGQSTGENNETYMTREEQIRLEEERLKAFEERVQQELLLKRQELLQREKELREIEARLEKEAKIKQEE
chain 3: T1 sequence (looked up)
chain 4: B2 chain 3 with H24A, R25A, K28A, K29A
- percent of particles that are heptamers [2]: 14.2%

B4: Cdc3–Cdc11–(His)6–Cdc12-Cdc10(I22E) complex (complex, S. cerevisiae)
chain 1: B2 chain 2
chain 2: B3 chain 2
chain 3: T1 sequence (looked up)
chain 4: B2 chain 3 with I22E
- percent of particles that are heptamers [2]: 24.9%

B5: (His)6–Cdc12-Cdc10-Cdc3 complex (complex, S. cerevisiae)
chain 1: T1 sequence (looked up)
chain 2: B2 chain 3
chain 3: B2 chain 2
- binding result [3]: binds

B6: (His)6–Cdc12-Cdc11-Cdc3(G261V) complex (complex, S. cerevisiae)
chain 1: T1 sequence (looked up)
chain 2: B3 chain 2
chain 3: B2 chain 2 with G261V
- binding result [4]: binds

B7: Cdc3(G261V) (natural protein, S. cerevisiae, UniProt P32457 1-520, looked up)
chain: B2 chain 2 with G261V
- binding result [4]: binds

— publication PMC3005623 (Journal of molecular biology, 2010)
